Measured values published in US20150065381A1.
Values joined by “and” are separate entries in the source; they are usually repeats but may differ in a detail not shown here. Equal values may be shown once.

Key:
[1] = biological target: HIV-1 envelope of gp160 clone AG-010.c11 (HIV-1); assay: capture ELISA, plate 2, mAb 2.5 ug/ml
[2] = biological target: HIV-1 envelope clone F1-002.c16 (multiclade gp160 clone panel) (HIV-1); assay: capture ELISA, plate 2, mAb 2.5 ug/ml
[3] = biological target: HIV-1 envelope of gp160 clone B-Acute-010.c09 (HIV-1); assay: capture ELISA, plate 2, mAb 2.5 ug/ml
[4] = biological target: HIV-1 envelope of gp160 clone AG-010.c14 (HIV-1); assay: capture ELISA, plate 2, mAb 2.5 ug/ml
[5] = biological target: HIV-1 envelope of gp160 clone B-Chronic-014.c02 (HIV-1); assay: capture ELISA, plate 2, mAb 2.5 ug/ml
[6] = biological target: HIV-1 envelope of gp160 clone B-Acute-009-c08 (HIV-1); assay: capture ELISA, plate 2, mAb 2.5 ug/ml
[7] = biological target: HIV-1 envelope of gp160 clone B-Acute-008.c11 (HIV-1); assay: capture ELISA, plate 2, mAb 2.5 ug/ml
[8] = biological target: HIV-1 envelope clone G-011.c05 (multiclade gp160 clone panel) (HIV-1); assay: capture ELISA, plate 2, mAb 2.5 ug/ml
[9] = biological target: HIV-1 JRCSF envelope (HIV-1) (UniProt P20871); assay: capture ELISA, plate 2, mAb 2.5 ug/ml
[10] = biological target: HIV-1 JRFL envelope (HIV-1); assay: capture ELISA, plate 2, mAb 2.5 ug/ml
[11] = biological target: HIV-1 16055 envelope (HIV-1); assay: capture ELISA, plate 2, mAb 2.5 ug/ml
[12] = biological target: HIV-1 envelope clone G-011.c02 (multiclade gp160 clone panel) (HIV-1); assay: capture ELISA, plate 2, mAb 2.5 ug/ml
[13] = biological target: HIV-1 envelope of gp160 clone B-Acute-010.c08 (HIV-1); assay: capture ELISA, plate 2, mAb 2.5 ug/ml
[14] = biological target: HIV-1 envelope clone F1-002.c11 (multiclade gp160 clone panel) (HIV-1); assay: capture ELISA, plate 2, mAb 2.5 ug/ml
[15] = biological target: HIV-1 envelope clone BF-002.c08 (multiclade gp160 clone panel) (HIV-1); assay: capture ELISA, plate 2, mAb 2.5 ug/ml
[16] = biological target: HIV-1 envelope clone BF-002.c05 (multiclade gp160 clone panel) (HIV-1); assay: capture ELISA, plate 2, mAb 2.5 ug/ml
[17] = biological target: aMLV envelope (from lysed pseudovirus); assay: antigen capture ELISA, mAb 2.5 ug/ml, plate 2
[18] = biological target: BG505 envelope (gp120 monomer released from lysed pseudovirus) (HIV-1); assay: antigen capture ELISA, mAb 2.5 ug/ml, plate 2
[19] = biological target: HIV-1 envelope of gp160 clone AG-010.c11 (HIV-1); assay: capture ELISA, plate 1, mAb 7.5 ug/ml
[20] = biological target: HIV-1 envelope clone F1-002.c16 (multiclade gp160 clone panel) (HIV-1); assay: capture ELISA, plate 1, mAb 7.5 ug/ml
[21] = biological target: HIV-1 envelope of gp160 clone B-Acute-010.c09 (HIV-1); assay: capture ELISA, plate 1, mAb 7.5 ug/ml
[22] = biological target: HIV-1 envelope of gp160 clone AG-010.c14 (HIV-1); assay: capture ELISA, plate 1, mAb 7.5 ug/ml
[23] = biological target: HIV-1 envelope of gp160 clone B-Chronic-014.c02 (HIV-1); assay: capture ELISA, plate 1, mAb 7.5 ug/ml
[24] = biological target: HIV-1 envelope of gp160 clone B-Acute-009-c08 (HIV-1); assay: capture ELISA, plate 1, mAb 7.5 ug/ml
[25] = biological target: HIV-1 envelope of gp160 clone B-Acute-008.c11 (HIV-1); assay: capture ELISA, plate 1, mAb 7.5 ug/ml
[26] = biological target: HIV-1 envelope clone G-011.c05 (multiclade gp160 clone panel) (HIV-1); assay: capture ELISA, plate 1, mAb 7.5 ug/ml
[27] = biological target: HIV-1 JRCSF envelope (HIV-1) (UniProt P20871); assay: capture ELISA, plate 1, mAb 7.5 ug/ml
[28] = biological target: HIV-1 JRFL envelope (HIV-1); assay: capture ELISA, plate 1, mAb 7.5 ug/ml
[29] = biological target: HIV-1 16055 envelope (HIV-1); assay: capture ELISA, plate 1, mAb 7.5 ug/ml
[30] = biological target: HIV-1 envelope clone G-011.c02 (multiclade gp160 clone panel) (HIV-1); assay: capture ELISA, plate 1, mAb 7.5 ug/ml
[31] = biological target: HIV-1 envelope of gp160 clone B-Acute-010.c08 (HIV-1); assay: capture ELISA, plate 1, mAb 7.5 ug/ml
[32] = biological target: HIV-1 envelope clone F1-002.c11 (multiclade gp160 clone panel) (HIV-1); assay: capture ELISA, plate 1, mAb 7.5 ug/ml
[33] = biological target: HIV-1 envelope clone BF-002.c08 (multiclade gp160 clone panel) (HIV-1); assay: capture ELISA, plate 1, mAb 7.5 ug/ml
[34] = biological target: HIV-1 envelope clone BF-002.c05 (multiclade gp160 clone panel) (HIV-1); assay: capture ELISA, plate 1, mAb 7.5 ug/ml
[35] = biological target: HIV-1 envelope of gp160 clone B-Chronic-014.c02 (HIV-1); assay: capture ELISA, original data
[36] = biological target: HIV-1 envelope of gp160 clone B-Acute-008.c11 (HIV-1); assay: capture ELISA, original data
[37] = biological target: HIV-1 envelope clone G-011.c05 (multiclade gp160 clone panel) (HIV-1); assay: capture ELISA, original data
[38] = biological target: HIV-1 envelope of gp160 clone B-Acute-010.c08 (HIV-1); assay: capture ELISA, original data

| Substance | ELISA OD [1] [OD] | ELISA OD [3] [OD] | ELISA OD [4] [OD] | ELISA OD [5] [OD] | ELISA OD [6] [OD] | ELISA OD [7] [OD] | ELISA OD [8] [OD] | ELISA OD [9] | ELISA OD [12] [OD] | ELISA OD [13] [OD] | ELISA OD [17] | ELISA OD [18] [OD] | ELISA OD [19] [OD] | ELISA OD [21] [OD] | ELISA OD [22] [OD] | ELISA OD [23] [OD] | ELISA OD [24] [OD] | ELISA OD [25] [OD] | ELISA OD [26] [OD] | ELISA OD [27] | also measured |
| --- | --- | --- | --- | --- | --- | --- | --- | --- | --- | --- | --- | --- | --- | --- | --- | --- | --- | --- | --- | --- | --- |
| PGT151 (antibody) | 0.08 | 0.095 | 0.149 | 0.203 | 0.128 | 0.266 | 0.086 | 0.078 OD and 0.068 OD | 0.113 | 0.148 | 0.075 OD and 0.104 OD | 0.063 | 0.081 | 0.081 | 0.148 | 0.525 | 0.11 | 0.256 | 0.089 | 0.073 OD and 0.086 OD | ELISA OD [2]: 0.114 OD; ELISA OD [10]: 0.098 OD and 0.072 OD; ELISA OD [11]: 0.082 OD and 0.076 OD; ELISA OD [14]: 0.115 OD; ELISA OD [15]: 0.067 OD; ELISA OD [16]: 0.174 OD; ELISA OD [20]: 0.105 OD; ELISA OD [28]: 0.088 OD and 0.08 OD; ELISA OD [29]: 0.08 OD and 0.078 OD; ELISA OD [30]: 0.121 OD; ELISA OD [31]: 0.206 OD; ELISA OD [32]: 0.087 OD; ELISA OD [33]: 0.087 OD; ELISA OD [34]: 0.286 OD; ELISA OD [35]: 0.247 OD; ELISA OD [36]: 0.321 OD; ELISA OD (original data) [37]: 0.145 OD; ELISA OD [38]: 0.211 OD |
| PG9 (antibody) | 0.597 | 0.106 | 0.834 | 0.986 | 0.07 | 0.168 | 0.161 | 0.177 OD and 0.186 OD | 0.052 | 0.278 | 0.059 OD and 0.053 OD | 0.346 | 0.891 | 0.199 | 1.22 | 2.35 | 0.115 | 0.363 | 0.37 | 0.411 OD and 0.454 OD | ELISA OD [10]: 0.058 OD and 0.051 OD; ELISA OD [11]: 0.225 OD and 0.219 OD; ELISA OD [28]: 0.072 OD and 0.11 OD; ELISA OD [29]: 0.519 OD and 0.367 OD; ELISA OD [30]: 0.108 OD; ELISA OD [31]: 0.547 OD; ELISA OD [35]: 2.42 OD; ELISA OD [36]: 0.75 OD; ELISA OD (original data) [37]: 1.25 OD; ELISA OD [38]: 0.547 OD |
| PGV04 (antibody) | 0.151 | 2.1 | 0.283 | 4 | 0.155 | 0.078 | 0.288 | 1.87 OD and 2.17 OD | 0.712 | 1.57 | 0.085 OD and 0.089 OD | 1.04 | 0.184 | 2.87 | 0.293 | 4 | 0.237 | 0.07 | 0.451 | 2.15 OD and 2.33 OD | ELISA OD [2]: 0.303 OD; ELISA OD [14]: 0.156 OD; ELISA OD [15]: 2.79 OD; ELISA OD [16]: 4 OD; ELISA OD [20]: 0.54 OD; ELISA OD [30]: 0.865 OD; ELISA OD [31]: 2.65 OD; ELISA OD [32]: 0.28 OD; ELISA OD [33]: 2.72 OD; ELISA OD [34]: 4 OD |
| PG16 (antibody) | 0.272 | 0.155 | 0.686 | 0.374 | 0.07 | 0.267 | 0.126 | 0.172 OD and 0.21 OD | 0.07 | 0.171 | 0.067 OD and 0.069 OD | 0.103 | 0.332 | 0.282 | 0.817 | 0.476 | 0.083 | 0.205 | 0.158 | 0.248 OD and 0.287 OD | ELISA OD [2]: 0.349 OD; ELISA OD [14]: 0.121 OD; ELISA OD [15]: 0.108 OD; ELISA OD [16]: 0.927 OD; ELISA OD [20]: 0.244 OD; ELISA OD [28]: 0.173 OD and 0.159 OD; ELISA OD [29]: 0.215 OD and 0.16 OD; ELISA OD [30]: 0.069 OD; ELISA OD [31]: 0.272 OD; ELISA OD [32]: 0.168 OD; ELISA OD [33]: 0.168 OD; ELISA OD [34]: 0.971 OD |
| PGT145 (antibody) | 0.08 | 0.074 | 0.076 | 0.066 | 0.11 | 0.103 | 0.119 | 0.173 OD and 0.086 OD | 0.07 | 0.316 | 0.07 OD and 0.066 OD | 0.077 | 0.082 | 0.084 | 0.07 | 0.106 | 0.109 | 0.146 | 0.133 | 0.071 OD and 0.084 OD | ELISA OD [2]: 0.456 OD; ELISA OD [10]: 0.075 OD and 0.058 OD; ELISA OD [11]: 0.079 OD and 0.067 OD; ELISA OD [14]: 0.072 OD; ELISA OD [15]: 0.073 OD; ELISA OD [16]: 0.297 OD; ELISA OD [28]: 0.076 OD and 0.075 OD; ELISA OD [29]: 0.085 OD and 0.077 OD; ELISA OD [30]: 0.129 OD; ELISA OD [31]: 0.179 OD; ELISA OD [35]: 0.077 OD; ELISA OD [36]: 0.178 OD; ELISA OD (original data) [37]: 0.301 OD; ELISA OD [38]: 0.211 OD |
